Test system: FOXA1 P358fs (purified)
Assay: BLI
Conditions: buffer, pH and temperature not given

KLK3 enhancer 60 bp
binding signal (fold higher affinity than WT): 5

— paper PMC6661908
